One molecule from patent US20150080245A1 (CATHOLIC UNIVERSITY INDUSTRY ACADEMIC COOPERATION FOUNDATION, published 2015) can be followed below.

The target of this experiment is T1, cyclic citrullinated peptide (CCP) derived from filaggrin (X stands for citrulline (9th residue of HQCHQESTXGRSRGRCGRSGS); a chemical bond between the two underlined Cs (cyclic)).
T1 construct: Synthesized peptide, coated on ELISA plates at 250 ng/well; also called Filaggrin-derived CCP; CCP peptide
T1 peptide: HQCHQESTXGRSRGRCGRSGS
Description: ELISA, coated CCP peptide, hybridoma supernatant diluted 1:1000. The method, then: For hybridoma selection, each of the CCP peptide and the CRP peptide, both previously prepared, was diluted to a final concentration of 250 ng/well in PBS or a carbonate buffer. The dilution was allocated in an amount of 50 μl into 96-well plates and incubated for 2 hrs at room temperature or overnight at 4° C. Each well was washed with 200 μl of PBS. To this end, the plates were overturned to decant the solution out of all the wells, and then struck down against paper towel to completely remove the remaining solution. […] After 30 min of the incubation, the color development was terminated with a stop solution, and color intensity to was immediately measured at 450 nm in a single point photo mode. […]
Repeated screening of the hybridoma cells against CCP and CRP left two clones 11G1 and 12G1 in the final stage (FIGS. 7 and 8). FIGS. 6 to 8 list binding intensities of anti-CCP antibodies when they recognized and bound to the target peptide CCP in each screening stage of the hybridomas, as measured by absorbance at 450 nm. […] With reference made to these marked values, how effectively each hybridoma clone produced an anti-CCP antibody was analyzed, and selection was made of effective clones which were then cultured many times so that the effective clones producing anti-CCP antibodies only predominated over other clones.
(ELISA stands for enzyme-linked immunosorbent assay.)

B1: monoclonal antibody 12G1 produced from the 12G1 hybridoma cell line (accession No. KCLRF-BP-00276) (antibody, V domains shown)
VH: EVKLEESGAELVRPGTSVKISCKASGYGFTNYWLGWIKQRPGHGLEWIGDVYPGSGNTYYNEKFKGKATLTADKSSSTVYMQLSSLTSEDSTVYFCAREGGITTAPYPFGYWGQGTLVTVSA
VL: DIVMTQTPSSMYASLGERVTITCKASQDINSYLSWFQQKPGKSPKTLIYRANRLVDGVPSRFSGSGSGQDYSLTISSLEYEDMGIYYCLQYDEFPWTFGGGTKLEIK
notes: Mouse monoclonal antibody from a hybridoma, detected with anti-mouse IgG; Used as hybridoma supernatant or as purified antibody; also called 12G1 antibody
Regarding B1, the binding result is “binds”.
